# Columns and labels:
# [1] = test system: Nc1nc2c(ncn2[C@@H]2O[C@H](COP(=O)(O)OP(=O)(O)OP(=O)(O)O)[C@@H](O)[C@H]2O)c(=O)[nH]1; assay: product formation by anion exchange chromatography; assay type: biochemical, Staphylococcus aureus; settings: pppGpp synthesis, 2.5 mM ATP, 5 mM MgCl2, pH 9.0, no added alarmone
# Excerpt: (§1) product formation by anion exchange chromatography on Sa-RelP
# [2] = test system: Nc1nc2c(ncn2[C@@H]2O[C@H](COP(=O)(O)OP(=O)(O)O)[C@@H](O)[C@H]2O)c(=O)[nH]1; assay: product formation by anion exchange chromatography; assay type: biochemical, Staphylococcus aureus; settings: ppGpp synthesis, 2.5 mM ATP, 5 mM MgCl2, pH 9.0, no added alarmone
# Excerpt: as §1
# [3] = test system: Nc1nc2c(ncn2[C@@H]2O[C@H](COP(=O)(O)O)[C@@H](O)[C@H]2O)c(=O)[nH]1; assay: product formation by anion exchange chromatography; assay type: biochemical, Staphylococcus aureus; settings: pGpp synthesis, 2.5 mM ATP, 5 mM MgCl2, pH 9.0, no added alarmone, 625 ± 165 in the source
# Excerpt: as §1
# EF-RelQ = molecular target: T1, EF-RelQ (Enterococcus faecalis, UniProt Q830U9); settings: allosteric activator; ppGpp synthesis from 1 mM GDP + 1 mM ATP; 2 mM MgCl2; pH 9.0; 37°C
# T1 construct: gene EF_2671
# T1 sequence (Q830U9 entry or part of it): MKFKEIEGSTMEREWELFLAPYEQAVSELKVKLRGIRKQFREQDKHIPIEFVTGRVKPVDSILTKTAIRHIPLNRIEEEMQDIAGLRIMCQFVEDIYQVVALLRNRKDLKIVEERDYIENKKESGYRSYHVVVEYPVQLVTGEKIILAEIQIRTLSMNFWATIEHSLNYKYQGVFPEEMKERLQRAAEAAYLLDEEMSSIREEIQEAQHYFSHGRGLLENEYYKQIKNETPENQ
# Excerpt: AMP formation by anion exchange chromatography, fold change of rate on EF-RelQ
# Sm-RelQ = molecular target: T2, Sm-RelQ (Streptococcus mutans, UniProt Q8DU97); settings: allosteric activator; pGpp synthesis from 1 mM GMP + 1 mM ATP; 2 mM MgCl2; pH 9.0; 37°C
# T2 construct: gene SMU_1046c
# T2 sequence (Q8DU97 entry or part of it): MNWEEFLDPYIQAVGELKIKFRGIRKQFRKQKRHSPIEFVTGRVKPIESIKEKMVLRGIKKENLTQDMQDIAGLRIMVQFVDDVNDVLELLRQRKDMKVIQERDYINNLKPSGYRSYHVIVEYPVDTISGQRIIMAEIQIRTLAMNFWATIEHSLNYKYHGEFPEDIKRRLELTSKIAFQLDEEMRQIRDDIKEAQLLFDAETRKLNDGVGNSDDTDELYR
# Excerpt: AMP formation by anion exchange chromatography, fold change of rate on Sm-RelQ
# Sm-RelP = molecular target: T3, Sm-RelP (Streptococcus mutans, UniProt Q8DUK1); settings: inhibitor; pGpp synthesis from 1 mM GMP + 1 mM ATP; 2 mM MgCl2; pH 9.0; 37°C
# T3 construct: gene SMU_926
# T3 sequence (Q8DUK1 entry or part of it): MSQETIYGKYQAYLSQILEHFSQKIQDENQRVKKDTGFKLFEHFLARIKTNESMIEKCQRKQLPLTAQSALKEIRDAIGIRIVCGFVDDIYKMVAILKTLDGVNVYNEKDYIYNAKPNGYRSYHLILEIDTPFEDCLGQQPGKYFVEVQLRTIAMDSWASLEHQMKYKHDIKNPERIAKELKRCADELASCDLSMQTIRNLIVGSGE
# Excerpt: AMP formation by anion exchange chromatography, fold change of rate on Sm-RelP
# [4] = test system: Nc1nc2c(ncn2[C@@H]2O[C@H](COP(=O)(O)OP(=O)(O)O)[C@@H](OP(=O)(O)OP(=O)(O)O)[C@H]2O)c(=O)[nH]1; assay: purified protein; settings: hydrolysis (HD domain), 1 mM MnCl2, 10 mM MgCl2, pH 7.8, 25°C
# [5] = test system: Nc1nc2c(ncn2[C@@H]2O[C@H](COP(=O)(O)OP(=O)(O)OP(=O)(O)O)[C@@H](O)[C@H]2O)c(=O)[nH]1; assay: purified protein; settings: pppGpp synthesis (SYNTH domain), 8 mM ATP, 6 mM MgCl2, pH 7.8, 25°C
# [6] = test system: Nc1nc2c(ncn2[C@@H]2O[C@H](COP(=O)(O)OP(=O)(O)O)[C@@H](O)[C@H]2O)c(=O)[nH]1; assay: purified protein; settings: ppGpp synthesis (SYNTH domain), 8 mM ATP, 6 mM MgCl2, pH 7.8, 25°C
# [7] = test system: Nc1nc2c(ncn2[C@@H]2O[C@H](COP(=O)(O)O)[C@@H](OP(=O)(O)OP(=O)(O)O)[C@H]2O)c(=O)[nH]1; assay: purified protein; settings: hydrolysis (HD domain), 1 mM MnCl2, 10 mM MgCl2, pH 7.8, 25°C
# [8] = test system: Nc1nc2c(ncn2[C@@H]2O[C@H](COP(=O)(O)OP(=O)(O)OP(=O)(O)O)[C@@H](OP(=O)(O)OP(=O)(O)O)[C@H]2O)c(=O)[nH]1; assay: purified protein; settings: hydrolysis (HD domain), 1 mM MnCl2, 10 mM MgCl2, pH 7.8, 25°C
compound,measurement,setting,value
Sa-RelP (Staphylococcus aureus subsp. aureus NCTC 8325),Km,[1],80 ± 21 µM
same,Vmax,[1],6 µM/min
same,kcat,[1],0.38 ± 0.03 s⁻¹
same,kcat/Km,[1],4750 ± 1000 M⁻¹ s⁻¹
same,Km,[2],177 ± 52 µM
same,Vmax,[2],12 µM/min
same,kcat,[2],0.78 ± 0.08 s⁻¹
same,kcat/Km,[2],4430 ± 900 M⁻¹ s⁻¹
same,Km,[3],625 ± 169 µM
same,Vmax,[3],3.6 µM/min
same,kcat,[3],0.06 ± 0.01 s⁻¹
same,kcat/Km,[3],90 ± 20 M⁻¹ s⁻¹
"Nc1nc2c(ncn2[C@@H]2O[C@H](COP(=O)(O)OP(=O)(O)O)[C@@H](OP(=O)(O)OP(=O)(O)O)[C@H]2O)c(=O)[nH]1 [ppGpp, guanosine-3’,5’-bis(diphosphate)]",+ 100 μM ppGpp / Fold-change,EF-RelQ,7.8 ± 0.6 fold
"Nc1nc2c(ncn2[C@@H]2O[C@H](COP(=O)(O)OP(=O)(O)OP(=O)(O)O)[C@@H](OP(=O)(O)OP(=O)(O)O)[C@H]2O)c(=O)[nH]1 [pppGpp, guanosine-5’-triphosphate 3’-diphosphate]",+ 100 μM pppGpp / Fold-change,Sm-RelQ,572 ± 149 fold
same,+ 100 μM pppGpp / Fold-change,Sm-RelP,0.3 ± 0.1 fold
Sa-Rel (Staphylococcus aureus subsp. aureus MRSA252),Km,[4],21.7 ± 2.8 µM
same,Vmax,[4],3.6 µM/min
same,kcat,[4],0.6 s⁻¹
same,kcat/Km,[4],27500 M⁻¹ s⁻¹
same,Km,[5],114.3 ± 15.7 µM
same,Vmax,[5],3.84 µM/min
same,kcat,[5],0.064 s⁻¹
same,kcat/Km,[5],560 M⁻¹ s⁻¹
same,Km,[6],434.9 ± 61.2 µM
same,Vmax,[6],1.08 µM/min
same,kcat,[6],0.018 s⁻¹
same,kcat/Km,[6],41 M⁻¹ s⁻¹
same,Km,[7],16.9 ± 2.1 µM
same,Vmax,[7],4.08 µM/min
same,kcat,[7],0.68 s⁻¹
same,kcat/Km,[7],40000 M⁻¹ s⁻¹
same,Km,[8],14.2 ± 1.3 µM
same,Vmax,[8],4.68 µM/min
same,kcat,[8],0.78 s⁻¹
same,kcat/Km,[8],55200 M⁻¹ s⁻¹
